The text below walks through data of article PMC6451138 (Nucleic Acids Research, 2019).

Data set [1] deals with exonuclease deficient AtPolIB (AtPolIB exo-) (Arabidopsis thaliana). Description: MST.
Data set [2] deals with AtmtSSB1 (Arabidopsis thaliana). The experiment in a line: SEC.
For data set [3], the target named is exonuclease deficient AtPolIB (AtPolIB exo-) (Arabidopsis thaliana). The experiment in a line: SEC-MALS.
For data set [4], the target named is AtmtSSB2 (Arabidopsis thaliana). Description: SEC. (In gel filtration, larger molecules generally elute earlier.)
The data set “SEC” concerns the molecule itself. Description: SEC.
In data set [5] the target is T1, AtmtSSB1 (Arabidopsis thaliana, UniProt Q84J78 33-201).
T1 sequence: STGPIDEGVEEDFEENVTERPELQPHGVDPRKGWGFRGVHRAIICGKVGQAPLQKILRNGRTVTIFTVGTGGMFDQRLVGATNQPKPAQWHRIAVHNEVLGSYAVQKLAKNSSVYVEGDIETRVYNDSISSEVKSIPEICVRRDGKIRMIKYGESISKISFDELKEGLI
Description: fluorescence anisotropy.

Data set [6] concerns the target T1, AtmtSSB1. Description: fluorescence anisotropy. The source holds these as a separate data set. Background: Fluorescence polarisation rises when a labelled molecule tumbles more slowly, as on binding a larger partner.

The molecule AtmtSSB1 (natural protein) showed a Kd in data set [1] of 1.48 µM. In data set [2], this molecule returned a stoichiometry N of 4. The molecule “exonuclease deficient AtPolIB (AtPolIB exo-) (enzyme)” came in with a stoichiometry N in data set [3] of 2. The molecule AtmtSSB2 (natural protein) gave a stoichiometry N in data set [4] of 4.

B1: AtOSB3 (natural protein, Arabidopsis thaliana, UniProt Q8GWJ4 62-440, looked up)
chain: VATEKESTPPKKIEYKPEISNWINLIGFVEQPVQFGPCSDGKFWAGTVISQRSGSKSSNFWIPIIFEGDLAKIAVQHVKKEDRIHVSGKLFIDSPPPNVTYSQSNVQVMVQNLNFVQAATSTTKTISPPEKEVTSIKKKPARSKKVKVIDEETSNSWKHLIENPKEWLDHRGNKANGLVKPGHPDFKMKVGGLSLWLSTAPDWALLKLEELKFDVLVPKGNIKLNQLKGEESWKDLVQNPDKWLDNRSDKTNVKYPDFKHKETGEALWMTNSPIWVLSKLPPLKKNQERPFMSNKVSQLELDVEVPKGNLKQLKREEIWKNLVENPSKWWDNRLDKRNPKGPDFKHKETGEALWIGDSPTWALSKLPPLKKNQERPVMA
As to B1, the “stoichiometry N” value in the data set “SEC” was determined as 4. In the data set with AtmtSSB1 [5], TTTTTTTTTTTTTTTTTTTTTTTTTTTTTTTTTTTTTTTTTTTTT (ssDNA) [ssDNA(45), Poly-T 45] yielded a Kd of 0.0628 ± 0.0036 µM.

B2: pssDNA-10 (Cy3) (mixed)
DNA 1: AACACTGTGAGCTTAGAGCCCCGGGG
DNA 2: CTAAGCTCACAGTGTT
On to B2, for which the binding result with AtmtSSB1 [6] was “no binding”.

B3: AtOSB2 (natural protein, Arabidopsis thaliana, UniProt Q8GXH3 21-371, looked up)
chain: ASEITTGKRITSPQIRLYTAAAVGGKTGNGERKQRAKAPAKTPEAVTPVKPLEIASVTATTENELPRPNEIAYESEVANWVNLIGFVDQPVQFEASSDGKFWAGTVISQRSASDSSGFWIPIIFEGDLAKTAARYVSKDDQIHVSGKLFIDSPPPNMTYAQANVQVLVQNLNFIQPMSPSPSPFMVMSSSEKEESGIKKQPARAKQDIVIDEASDSWNHLIENPKEWWDHRENKVNGLVKPRHPDFKSKDSSFSLWLNKAPNWVLPKLEGLEFDVLVPKARVVKQLKGEESWKDLVQNPDKWWDNRIDKRNAKAPDFKHKETGEALWLNESPTWVLPKLPPVKKKQESIVF
B3: the “stoichiometry N” value in the data set “SEC” turned out to be 4.

B4: AtWhirly2 (natural protein, Arabidopsis thaliana, UniProt Q8VYF7 30-238, looked up)
chain: ASWSNSSTPGRGFPGKDAAKPSGRLFAPYSIFKGKAALSVEPVLPSFTEIDSGNLRIDRRGSLMMTFMPAIGERKYDWEKKQKFALSPTEVGSLISMGSKDSSEFFHDPSMKSSNAGQVRKSLSVKPHADGSGYFISLSVNNSILKTNDYFVVPVTKAEFAVMKTAFSFALPHIMGWNRLTGHVNTEALPSRNVSHLKTEPQLELEWDK
As to B4, in the data set “SEC”, the “stoichiometry N” value turned out to be 4. In data set [1], this molecule yielded a Kd of more than 250 µM.

In general, Kd refers to a measure of binding affinity in units of concentration. Low values mean a tighter complex, high ones a looser complex. A word on the stoichiometry N: it is a count of units in the complex or per binding partner.
